Data taken from the domain aggregation screens of Martell et al. (2025).

test: soluble fraction after stress (log2 fold change); higher = more stays soluble; pooled small domains, quantitative proteomics; details: stress: 75 degC
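Further: 20 min heating vs room temperature control held 20 min.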

First: HMTKEEIVVNWLPRYTKRNLEDFGEYILLTNFNKYVEIFAEKFNVPILGRDANMISASAEGITIIN
Second: HMTKEEREKREKYEKLMKKAEELTAAKNHREVINVLGQAKAYATAAQLKEIEEKIKAATSEMNK
The “soluble fraction (log2)” value of the first is lower: -0.409 for the first, 0.326 for the second.

First: HMTKEGVNISITADGVQLSTESPNRVSIFNVNGTKVWEGIAPANVSLQKGVYILQTANGNTKFV
Second: HMTKLLITNYERNVLINSYLLKNTPELDDIRRLLVHNKHISENDVSTEMARRIKKHKADWLRVT
The “soluble fraction (log2)” value of the first is higher: 0.597 for the first, -3.4 for the second.

First: HMTKLTPLEVNLYAKKLANDPEFGSKHIEPGESFSQAEERLRVQLSQQEYVQKYSKYLKKLKASA
Second: HMTKPAEVRIDELMNAAQTLFLAKGVEATTISEIIASVGVAKGTFYHYFESKQHIVEALKKRYID
The “soluble fraction (log2)” value of the first is higher: -0.198 for the first, -1.85 for the second.

Going from “HMTKQNVVPLMYRMIDTLEQFIKADVPFNIETRLARVERLRETMVSSSVTTSEKFRQVLEAYTIETD” to “HMTKSEWLRESREHLGLSQTDLRNLLNTALNRSYDKSRISRWENSKENIPAEVVKQIESLIATR”, the “soluble fraction (log2)” value rises from -1.05 to -0.0559.

First: HMTKTRTEILEYLKQNWSVTVSASDIKKHLEEKEIKANTTTIYRYLDKLLAEHVIIKYADAGSERAVYQYS
Second: HMTKVIEFLVSDEEHGVRADKAFVSHNQKLSRSYFKKLILNGNLYINNKVNLDPSYKLIKGSTVRIILPE
The “soluble fraction (log2)” value of the first is higher: -2.23 for the first, -2.58 for the second.

Compared with “HMTKVKIDRLFSIVQMLVNRKSVTAKELADYFNVSVRTIYRDIEILSANGIPIYATQGKGGGISILEN”, “HMTKYEGLSLDLIIDGVVITHNLKLAKLDMNWLLDRLKENGWDNPKDIFYAYIDTAGNFRFQPKLKASRTR” is higher in “soluble fraction (log2)” value: -1.74 for the first, 0.473 for the second.

Compared with “HMTKYREVLRMSAGGFSQRVIASTLSISRNTVASTLKRAREQNLDWEAVEQQRLSEKDIANLLFP”, “HMTLAEEFNNLNGKVITRETLESLLVKAEKEQNSTISNRIRKVLQAYTADTFLIELQHTESA” is higher in “soluble fraction (log2)” value: -3.22 for the first, -0.0241 for the second.

First: HMTLALKQGSTGSTVKQVQQKLKNWGYYSGAVDGIFGSGTRKAVVLFQKRNKLTADGIVGSKTLEALGIYV
Second: HMTLDDSIALGRSLLDKGLMDFGTNLANLAEDKLRDFLSQQRYENLDDLFADIARGNRLPMFTAQQLLS
The “soluble fraction (log2)” value of the first is lower: -2.36 for the first, -0.0666 for the second.

Compared with “HMTLDVALSKEIKYMLKEEHYLPGDKLPSERKLAELFHVQRLTVRGALNLLLQDKTIISKPRSGYYVAPKR”, “HMTLFDESGYTARELEIIREVANGLSNKEIADKLFLSEGTVKNYITGILAKENLSHRTALAVYYLTGRK” is higher in “soluble fraction (log2)” value: -2.88 for the first, -1.83 for the second.

First: HMTLHEAMEKLFRQVGRPMTTKEIAEKLNENKWYQKADGSPLTPYQIYGRAKNYPALFHREGSIIYLKGS
Second: HMTLKTISLTEAIKNTNEGNYSKLVLDGNELTITEQGKETPSLKTYTEPGTSLKEQGFDLSKVEFEAREQS
The “soluble fraction (log2)” value of the first is lower: -0.547 for the first, -0.0223 for the second.

Going from “HMTLNQEELMGKTEAILFAGGEPVSLDRIAQVLGVRTPVIDSIVSALQEKYNTPTSGIQLMRL” to “HMTLPELTDRELQILQLLSVGNSSQKIAKQLNISTHTVSTHRKQLLRKLGAQNGADLIRRAQKLGIL”, the “soluble fraction (log2)” value falls from -0.267 to -1.78.

First: HMTLQEFYARVGGDYNATLSRLPSEALVKKFILKYPGDPSFAQLKDALAAQDWELAFRASHTLKGVAQN
Second: HMTLSAPMPGTVLKIHVKEGQRVRKGQTLVVLEAMKMEHRIQAPKAGEVTNLHFSEGDRVDMGEILVEIG
The “soluble fraction (log2)” value of the first is higher: -1.9 for the first, -2.34 for the second.

First: HMTLSDDEFEIIKSLIIDTLKEEALTINALTKKINHKEAKTIQVIRFLLDNGLVAENNLMKLFVI
Second: HMTLTIEDQLRRLRARLGRGRAFLFSDVLVNPHDRTEIAVTLLALLELIKRREAQASQSYLFGPIEVAAA
The “soluble fraction (log2)” value of the first is higher: -1.43 for the first, -2.01 for the second.

First: HMTLTLEQAAAIKNSEGEQYGKIESERLAAMSVQIDKAIKSNGHDPNKKADLERKLDAIGIILNARAAG
Second: HMTLVKRSAMVTAWSEFAGGRVNSKLIALQNGKAGDWIELENPQSGRKLRGRVQSDGSVRLGS
The “soluble fraction (log2)” value of the first is higher: 0.222 for the first, -1.07 for the second.

Going from “HMTLYITDQMRKILDYVATNQEIDEKAVMDLLSIQRTRAYLIAKKMTDIGLLQVQGRGKTKTYRLAARS” to “HMTLYQIGDKVVHPMHGAGVIDSVVQRKVSGQVQEFYLLKLSVGNMVVMVPTDNTGEIGMRP”, the “soluble fraction (log2)” value falls from -2.08 to -2.52.

Going from “HMTMEQAEFLSRQFNLLSQRLNDPSIEWQDIADLRSEYTGEDEHRDTIRKGAKLFYEYLEAGWIKN” to “HMTMKNPNGYGSVINLGKGRRRPWAARVTTGLVYDEKKDKLIQRYKYIGYADTRKEAHQILAEYNAGLPI”, the “soluble fraction (log2)” value falls from -0.76 to -1.76.

Going from “HMTMMTFGEKLQNARKGAGLSQEQLAEKLSVSRSAVAKWENDNGMPDIDNLKAIAQLLDVSIDYLLEN” to “HMTMNLIEIGHVVGARRAELGLTQAQLAHLSGLSRQTVVGLEKGTLSDLGVNRVGQVMAVLGLDS”, the “soluble fraction (log2)” value falls from 0.812 to -0.555.

Going from “HMTMPDFGYMRVSYAEARRQLQAIGISVSTIEKVEDPSHTSATGDMVISQYPAAGSKIEGTVTLYVSVAS” to “HMTMSFSELLRGLRKSRGMSQAELATAVGLSQAQVSQIETGKLLPSPELIEKLAALYGIALGSA”, the “soluble fraction (log2)” value rises from -3.65 to 0.279.

Going from “HMTMTKELGQRIRAERTARKMTQEELAERADLHPTYIGQVERGEKSLTIASLEKIVEGLGISFSDLFEN” to “HMTMVKYRYLTDGELKEFEEEFKHFLIANGLHSEEWERLNNEDSNKAIEVVALFSNLILDKV”, the “soluble fraction (log2)” value falls from 0.244 to -1.81.

Compared with “HMTMVLPDAARDKLKAIGLSIEHVEPSPVKDIFTVISREGVSYVSKDGDYIFTGSLFHVKGKDVVNTTEQA”, “HMTNEAFITPSVLEWAIKRAGVSAESIHKKAEQWVSGKARPTFKQAVDIAKTLQIPFGYLWLKEPPKEQ” is lower in “soluble fraction (log2)” value: 0.0464 for the first, -0.949 for the second.

“HMTNELVNVNKLLDVMEPSIPLTALEIMTRLGIKSKETLRNSYLNPAIKLGMINLTSPLKPTSKNQMYYK” and “HMTNKSKQRRNEILRASQELFNKKGFHDTSINDIMRRVGAAKGVFYYYFETKDQILDTLIEQHIA” are within 0.2 log units of each other in “soluble fraction (log2)” value: -1.02 for the first, -0.978 for the second.

Going from “HMTNLTPKQQQIYQFIRASTQANGYPPTLREIGQQVGVRSPSTVKYHLDNLRTLGLLHWDGGKTRSITLP” to “HMTNNFIVTWRNYNEEVLEIDVNVKKGSMPKYNGKTPEREGYQFVGWDPEITEVTKDITYVAQFM”, the “soluble fraction (log2)” value falls from -0.77 to -1.92.

Going from “HMTNQKEITYSQFRQELDQGSIKSVSLQGSRIRGTYVDGGISFRTLAPNDADLIPSLMKHKVDIQVLPED” to “HMTNSTGWSKSGGTQVTIREGETIYNLSRRYGVPAKSIMEANGIADATAVRAGQRISIPTYSY”, the “soluble fraction (log2)” value falls from 0.292 to -0.0378.

Compared with “HMTNVDELIGKEAVVVKEIRPYTTGEVKLDGKVWRAMSESKQVYKVDEIVTVLRIEGVTMII”, “HMTNVETLVRMRLRSIRTTLGYSLDEIAERSNLSASTVSRIETGKRALSIDVLVPLAAALQVSVDDLLRAE” is lower in “soluble fraction (log2)” value: -2.46 for the first, -2.92 for the second.

First: HMTNYREILRLRSLGLNHSRIAESMGISRPTVIAALQRAQTQELNWQAAESLSDIDLAQRLNP
Second: HMTNYYTVTFKEGDTVLKEVSVHSGDGVPYAVAPKRDDIVGWSYNGNTYTTDLNTLKIKKEVTFTAVT
The “soluble fraction (log2)” value of the first is lower: -0.847 for the first, 0.235 for the second.

“HMTPAIEKTAVIVFINGKKYYVHTVKSGETLYSIAKAYKVDEKVIKEHNPNVADGLRIDQTVKIPVPEQVK” and “HMTPAPHESLTDREMEVLKLLAQGLSNQEIADKLFIGVKTVKYHITNIFSKLGVEDRTQAAIYAHKQGLA” are within 0.2 log units of each other in “soluble fraction (log2)” value: -0.549 for the first, -0.475 for the second.

Going from “HMTPDDSYIAGYAAGILKHQFLIDAPELIVRNGTITIPADKVSAGDRAKVVQILSGIPGVTRVEVG” to “HMTPDVHRGDTITVSLRAGAIRVRVPAKALEEGAAGGEIRVVNLTGGREYRVRVTGPGTAEAIL”, the “soluble fraction (log2)” value falls from 0.224 to -0.966.

First: HMTPEGAYTVSEIVKVINSFADEYKVPFTMHVSGYKYEEIAQQLGLPIGTVKSRIFFARKRLQELLN
Second: HMTPEPVTMYITSLTEFRSEPNTEAGIIKLLDAYEEVEMIESRGEWSKISYGDQIGYILSEFLTAENRT
The “soluble fraction (log2)” value of the first is lower: -2.45 for the first, -0.85 for the second.

Going from “HMTPILTAQQVVAALQAAGYRNVHDLEFEHGRWEADAVNAAGQRVELHINPYTGAIERERLD” to “HMTPKTSVPKPGQTVVVRKGDTIYALARIHDITPADLIAWNRLDNPSQIYPGQVIRLYPQGA”, the “soluble fraction (log2)” value falls from 0.584 to -0.563.

Compared with “HMTPKVDLTVAEDGSASAVIAGLRVEIDAAGKVTAVAPADGTTDLSSVAPEAVKEAMDNALAAYTASKG”, “HMTPLFNQGEVLKGFVLQTGTNNRVLLQIGTAKVLADAQTPLKAGEQLTLRVEATGPRTVLQILG” is lower in “soluble fraction (log2)” value: 0.12 for the first, -0.461 for the second.

“HMTPLILTAQEGGERLDAFVASQVEDLTRSAAQRLLEQGAVTSGGKPLKKNAKTTPGMVVEVLLPDPQ” and “HMTPPPTNSREWMEWGISHGLDANLDRSGQVVFYTDDRVVADAAELSGADLERDNMGQFVIYTGAYDKG” are within 0.2 log units of each other in “soluble fraction (log2)” value: -0.113 for the first, 0.0155 for the second.

“HMTPQEQWNNAYLLAKDYYDANGNLDIDEKYKTKDGFELGSWLTTQRNVYKRGKLSPEKTKKLEEIGISF” and “HMTPQGALDYSRNAKYLRDQVTAINYLKQARLSLNTTDANYRQTLEQINQAIAKHNQALQQAGVQSQQLAT” are within 0.2 log units of each other in “soluble fraction (log2)” value: 0.0776 for the first, -0.00591 for the second.

Going from “HMTPTPQQNNILVGQTGTTLTRLAPMGKVRVGEVTAEAKTIDGYINPRQSVEVIGFENTVVIVRAV” to “HMTPVIINESGGDQDTRIEGLNDNNLLYVDASTDRVGVGVATPTQKLDVNGDVAISGGSLYLSQ”, the “soluble fraction (log2)” value rises from -0.748 to 0.183.

“HMTPVKAPLPGVVTKINVSVGQQVKKGENVLVLEAMKMENNIAAEADGTVSGIAVKAGDSVLEGAVLLTI” and “HMTPVTYELTVQSGAGQRIDKYLSEQLADLTRSYLQKLLKDGGVTVNGKTVKSNYKLSENDQIFLEVPDA” are within 0.2 log units of each other in “soluble fraction (log2)” value: 0.0213 for the first, 0.0544 for the second.

Compared with “HMTPVYLNARQKQILAFLKREEPAKVGDIAHALKTISINTLKKDLLYLRQKNLIESHGVLKGTIYTVK”, “HMTQEFIVPKVTGYTVEDAMNLSGVKDVFEITVDSTEKSDQPAGIILFQDPKDGSSRKSDLVIHVVVSAGS” is higher in “soluble fraction (log2)” value: -1.6 for the first, -0.363 for the second.
